In PMC2104711:
Blank lines part the entries; values can stand above or below the binder they belong to.

Assays:
Settings in all cases: remark: other sources report otherwise
[1] = biological target: T1, human XLF (1–233) with N-terminal His6 tag (XLF410) (human), Q9H9Q4; experiment: cross-linking
T1 chain: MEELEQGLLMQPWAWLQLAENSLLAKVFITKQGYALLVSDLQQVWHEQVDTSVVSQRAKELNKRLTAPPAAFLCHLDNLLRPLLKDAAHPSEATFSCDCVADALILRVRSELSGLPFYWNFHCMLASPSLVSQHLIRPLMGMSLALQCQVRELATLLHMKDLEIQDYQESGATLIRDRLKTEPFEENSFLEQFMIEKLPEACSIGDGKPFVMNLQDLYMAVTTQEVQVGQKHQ

[2] = biological target: T2, SeMet-substituted human XLF (1–233) (SeMet-XLF441, cleaved) (human), Q9H9Q4; experiment: crystal structure
T2 chain: T1 chain

[3] = biological target: T3, human XLF/Cernunnos (1–233), tag-free (cleaved XLF441) (human), Q9H9Q4; experiment: dynamic light scattering
T3 chain: T1 chain

- stoichiometry N [1]: 2
B1: human XLF (1–233) with N-terminal His6 tag (XLF410), Q9H9Q4 1-233 (domain or fragment)
chain: T1 chain

- stoichiometry N [2]: 2
B2: SeMet-substituted human XLF (1–233) (SeMet-XLF441, cleaved), Q9H9Q4 1-233 (domain or fragment)
chain: T1 chain
modifications: here or on the partner: selenomethionine-substituted (SeMet in place of methionine); selenomethionine-substituted (SeMet in place of methionine)

- stoichiometry N [3]: 2
B3: human XLF/Cernunnos (1–233), tag-free (cleaved XLF441), Q9H9Q4 1-233 (domain or fragment)
chain: T1 chain
